The values below come from the Human Domainome abundance scans (Beltran et al. 2025).

± gives the uncertainty stated by the source.

Sequences and labels used below:
B1: Max-interacting protein 1, residues 70 to 120; numbered along this chain, P50539 (parent)
chain: STHNELEKNRRAHLRLCLERLKVLIPLGPDCTRHTTLGLLNKAKAHIKKLE

In this series the parent is B1. The experiment in a line: abundance fitness (aPCA) (normalised: wild type 0, dead -1); higher = more abundant; growth selection in yeast, the domain comes from the species named. The following applies: Homo sapiens.
Turning to STHNELEKNRRPHLRLCLERLKVLIPLGPDCTRHTTLGLLNKAKAHIKKLE, the abundance fitness is -0.102 ± 0.12.

For STHNELEKNRRLHLRLCLERLKVLIPLGPDCTRHTTLGLLNKAKAHIKKLE, the abundance fitness was -0.651 ± 0.1.

As to STHNELEKNRRRHLRLCLERLKVLIPLGPDCTRHTTLGLLNKAKAHIKKLE, the abundance fitness was -0.327 ± 0.086.

Turning to STHNELEKNRRGHLRLCLERLKVLIPLGPDCTRHTTLGLLNKAKAHIKKLE, the abundance fitness was -0.063 ± 0.08.

As to STHNELEKNRRNHLRLCLERLKVLIPLGPDCTRHTTLGLLNKAKAHIKKLE, the abundance fitness is -0.185 ± 0.15.

Regarding STHNELEKNRRSHLRLCLERLKVLIPLGPDCTRHTTLGLLNKAKAHIKKLE, the abundance fitness was 0.018 ± 0.094.

Turning to STHNELEKNRRIHLRLCLERLKVLIPLGPDCTRHTTLGLLNKAKAHIKKLE, the abundance fitness is -0.847 ± 0.2.

For the variant STHNELEKNRRHHLRLCLERLKVLIPLGPDCTRHTTLGLLNKAKAHIKKLE, the abundance fitness was -0.666 ± 0.17.

For the variant STHNELEKNRRFHLRLCLERLKVLIPLGPDCTRHTTLGLLNKAKAHIKKLE, the abundance fitness was -0.826 ± 0.19.

For the variant STHNELEKNRREHLRLCLERLKVLIPLGPDCTRHTTLGLLNKAKAHIKKLE, the abundance fitness was -0.432 ± 0.11.

STHNELEKNRRYHLRLCLERLKVLIPLGPDCTRHTTLGLLNKAKAHIKKLE: the abundance fitness was -0.932 ± 0.23.

On to STHNELEKNRRWHLRLCLERLKVLIPLGPDCTRHTTLGLLNKAKAHIKKLE, for which the abundance fitness is -0.193 ± 0.1.

In the case of STHNELEKNRRKHLRLCLERLKVLIPLGPDCTRHTTLGLLNKAKAHIKKLE, the abundance fitness is -0.048 ± 0.12.

With STHNELEKNRRDHLRLCLERLKVLIPLGPDCTRHTTLGLLNKAKAHIKKLE, the abundance fitness is -0.438 ± 0.17.

As for STHNELEKNRRVHLRLCLERLKVLIPLGPDCTRHTTLGLLNKAKAHIKKLE, the abundance fitness is -0.438 ± 0.087.

Consider STHNELEKNRRCHLRLCLERLKVLIPLGPDCTRHTTLGLLNKAKAHIKKLE, for which the abundance fitness is -0.426 ± 0.13.

Turning to STHNELEKNRRQHLRLCLERLKVLIPLGPDCTRHTTLGLLNKAKAHIKKLE, the abundance fitness was -0.305 ± 0.12.

In the case of STHNELEKNRRTHLRLCLERLKVLIPLGPDCTRHTTLGLLNKAKAHIKKLE, the abundance fitness came out at 0.124 ± 0.12.

As for STHNELEKNRLAHLRLCLERLKVLIPLGPDCTRHTTLGLLNKAKAHIKKLE, the abundance fitness is -0.062 ± 0.085.

On to STHNELEKNRFAHLRLCLERLKVLIPLGPDCTRHTTLGLLNKAKAHIKKLE, for which the abundance fitness is -0.396 ± 0.15.

For STHNELEKNRWAHLRLCLERLKVLIPLGPDCTRHTTLGLLNKAKAHIKKLE, the abundance fitness is -0.257 ± 0.1.

With STHNELEKNRVAHLRLCLERLKVLIPLGPDCTRHTTLGLLNKAKAHIKKLE, the abundance fitness is -0.509 ± 0.087.

On to STHNELEKNRQAHLRLCLERLKVLIPLGPDCTRHTTLGLLNKAKAHIKKLE, for which the abundance fitness is -0.281 ± 0.12.

Regarding STHNELEKNRDAHLRLCLERLKVLIPLGPDCTRHTTLGLLNKAKAHIKKLE, the abundance fitness was -0.19 ± 0.14.

Take STHNELEKNRTAHLRLCLERLKVLIPLGPDCTRHTTLGLLNKAKAHIKKLE: the abundance fitness was -0.352 ± 0.12.

In the case of STHNELEKNRAAHLRLCLERLKVLIPLGPDCTRHTTLGLLNKAKAHIKKLE, the abundance fitness was -0.547 ± 0.1.

Take STHNELEKNRIAHLRLCLERLKVLIPLGPDCTRHTTLGLLNKAKAHIKKLE: the abundance fitness is -0.252 ± 0.26.

As for STHNELEKNRMAHLRLCLERLKVLIPLGPDCTRHTTLGLLNKAKAHIKKLE, the abundance fitness is -0.261 ± 0.13.

In the case of STHNELEKNRPAHLRLCLERLKVLIPLGPDCTRHTTLGLLNKAKAHIKKLE, the abundance fitness was -0.105 ± 0.12.

With STHNELEKNRSAHLRLCLERLKVLIPLGPDCTRHTTLGLLNKAKAHIKKLE, the abundance fitness was -0.375 ± 0.12.

Regarding STHNELEKNRKAHLRLCLERLKVLIPLGPDCTRHTTLGLLNKAKAHIKKLE, the abundance fitness is 0.223 ± 0.11.

STHNELEKNRCAHLRLCLERLKVLIPLGPDCTRHTTLGLLNKAKAHIKKLE: the abundance fitness is -0.256 ± 0.23.

Regarding STHNELEKNRHAHLRLCLERLKVLIPLGPDCTRHTTLGLLNKAKAHIKKLE, the abundance fitness was -0.13 ± 0.13.

Take STHNELWKNRRAHLRLCLERLKVLIPLGPDCTRHTTLGLLNKAKAHIKKLE: the abundance fitness was -0.004 ± 0.11.

Regarding STHNELYKNRRAHLRLCLERLKVLIPLGPDCTRHTTLGLLNKAKAHIKKLE, the abundance fitness is -0.205 ± 0.15.

As for STHNELVKNRRAHLRLCLERLKVLIPLGPDCTRHTTLGLLNKAKAHIKKLE, the abundance fitness is -0.185 ± 0.092.

For STHNELEKNWRAHLRLCLERLKVLIPLGPDCTRHTTLGLLNKAKAHIKKLE, the abundance fitness is 0.163 ± 0.11.

STHNELEKNNRAHLRLCLERLKVLIPLGPDCTRHTTLGLLNKAKAHIKKLE: the abundance fitness is -0.18 ± 0.24.

In the case of STHNELEKNLRAHLRLCLERLKVLIPLGPDCTRHTTLGLLNKAKAHIKKLE, the abundance fitness was -0.076 ± 0.098.

As for STHNELEKNARAHLRLCLERLKVLIPLGPDCTRHTTLGLLNKAKAHIKKLE, the abundance fitness was found to be 0.038 ± 0.088.

As to STHNELEKNSRAHLRLCLERLKVLIPLGPDCTRHTTLGLLNKAKAHIKKLE, the abundance fitness is -0.217 ± 0.1.

STHNELEKNFRAHLRLCLERLKVLIPLGPDCTRHTTLGLLNKAKAHIKKLE: the abundance fitness was -0.164 ± 0.13.

As for STHNELEKNPRAHLRLCLERLKVLIPLGPDCTRHTTLGLLNKAKAHIKKLE, the abundance fitness stood at 0.298 ± 0.14.

Turning to STHNELEKNHRAHLRLCLERLKVLIPLGPDCTRHTTLGLLNKAKAHIKKLE, the abundance fitness is -0.068 ± 0.14.

Consider STHNELEKNVRAHLRLCLERLKVLIPLGPDCTRHTTLGLLNKAKAHIKKLE, for which the abundance fitness is -0.101 ± 0.082.

Consider STHNELEKNDRAHLRLCLERLKVLIPLGPDCTRHTTLGLLNKAKAHIKKLE, for which the abundance fitness was -0.545 ± 0.13.

STHNELEKNGRAHLRLCLERLKVLIPLGPDCTRHTTLGLLNKAKAHIKKLE: the abundance fitness was -0.322 ± 0.083.

For the variant STHNELEKNIRAHLRLCLERLKVLIPLGPDCTRHTTLGLLNKAKAHIKKLE, the abundance fitness is -0.289 ± 0.13.

STHNELEKNERAHLRLCLERLKVLIPLGPDCTRHTTLGLLNKAKAHIKKLE: the abundance fitness is -0.71 ± 0.13.

Take STHNELEKNQRAHLRLCLERLKVLIPLGPDCTRHTTLGLLNKAKAHIKKLE: the abundance fitness is -0.219 ± 0.15.

Take STHNELEKNCRAHLRLCLERLKVLIPLGPDCTRHTTLGLLNKAKAHIKKLE: the abundance fitness was -0.071 ± 0.14.
